Reference: US20100136663

Biological target: T1, ZFP-CRP Del 180 (CRP 1-180 fused to human zinc fingers ZFP1/ZFP2) (Escherichia coli / Homo sapiens) (UniProt P0ACJ8)
T1 sequence: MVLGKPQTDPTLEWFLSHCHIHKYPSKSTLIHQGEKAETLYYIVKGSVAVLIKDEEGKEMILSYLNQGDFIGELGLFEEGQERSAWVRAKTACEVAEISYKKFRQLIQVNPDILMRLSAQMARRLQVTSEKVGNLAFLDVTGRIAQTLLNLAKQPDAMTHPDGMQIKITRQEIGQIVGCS
Experiment: cell_activity

Row | Sequence | activity (fold repression) (E. coli EGFP reporter with 1 mM IPTG, assignment of SEQ 8 to pEGFP-R inferred) | activity (fold activation) (E. coli EGFP reporter without IPTG, 2-fold with 1 mM IPTG, assignment of SEQ 7 to pEGFP-A inferred)
1 | ATCGATAAGCTTACTCCCCATCCCCCTGTTGACAATTAATCATCGGCTCGTATAATGTGTGGAATTGTGAGCGGATAACAATTTCGCGGCGGGGGCGGCGGGGACACAGGAAACAGGATCAAATTATGCCTGTCGAC (double strand) | 1.5 | 
2 | ATCGATAAGCTTGCGGCGGGGGCGGCGGGGACTCCCCATCCCCCTGTTGACAATTAATCATCGGCTCGTATAATGTGTGGAATTGTGAGCGGATAACAATTTCACACAGGAAACAGGATCAAATTATGCCTGTCGAC (double strand) |  | 3
